The values below come from patent publication US12123876B2, “Antibody binding to HEG1 and use of the antibody for detection and treatment of mesothelioma” (Kanagawa Prefectural Hospital Organization, priority 2016, dated 2024).

Assay [1] relates to SKM9-2 antibody. The assay can be described thus: Western blot reactivity of human HEG1 fragments expressed in ACC-MESO-1 with SKM9-2 antibody. It is filed as binding, mouse. The settings on record: Western blot of cell lysate. The procedure: In this Example, the mesothelioma cell line ACC-MESO-1 was allowed to express a human HEG1 fragment with the endogenous HEG1 of ACC-MESO-1 knocked down, and the reactivity with the SKM9-2 antibody was examined. Subsequently, the reactivity with the antibody was tested for the epitope region through alanine scanning, and key amino acids for binding to the antibody were determined.
Gene transfer was performed with HEG1 siRNA (H9106) (SEQ ID NOs: 40, 41) and human HEG1 for the mesothelioma cell line ACC-MESO-1, and the reactivity of the SKM9-2 was examined through Western blot analysis. A full length protein (HEG1 full length) or a fragment (HEG1 3 kb, HEG1 2 kb, or HEG1 1 kb) of the human HEG1 was used. The full length human HEG1 protein, a protein having the amino acid sequence set forth in SEQ ID NO: 35, was obtained through inserting a base sequence set forth in SEQ ID NO: 34 into pFLAG-CMV1 (Sigma-Aldrich Japan K.K.) to obtain a plasmid, transforming the plasmid, and allowing the mesothelioma cell line to express the plasmid. Fragment HEG1 3 kb was obtained through inserting a fragment corresponding to a sequence from position 285, leucine, to position 1387, phenylalanine, of SEQ ID NO: 35 into pFLAG-CMV1 (Sigma-Aldrich Japan K.K.) in an in-frame manner, and allowing the mesothelioma cell line to express the resultant. HEG1 2 kb and HEG1 1 kb were obtained through allowing the mesothelioma cell line to express products similarly obtained from a fragment corresponding to a sequence from position 677, leucine, to position 1387, phenylalanine, of SEQ ID NO: 35 and a fragment corresponding to a sequence from position 992, valine, to position 1387, phenylalanine, of SEQ ID NO: 35, respectively. Each cell lysate was analyzed through Western blot with the SKM9-2 antibody.
Further, the region in exon 7 of HEG1 was analyzed in detail. The amino acid sequence of a part of exon 7 of HEG1 was connected to the N-terminal side of a protein obtained by connecting a GPI anchor signal to human SLURP1 (SEQ ID NO: 42; hereinafter referred to as “SLURPgpi”) to produce a fusion protein, and the reactivity of the SKM9-2 was examined through Western blot analysis with the fusion protein. A signal sequence (SEQ ID NO: 43) was added to the N-terminal of the fusion protein before expression.
Used fusion proteins of a partial sequence of exon 7 of HEG1 and SLURPgpi were as follows: • a fragment obtained by bonding a fragment from amino acid No. 783, aspartic acid, to amino acid No. 991, serine, to SLURPgpi (7.6); • a fragment obtained by bonding a fragment from amino acid No. 832, glutamine, to amino acid No. 991, serine, to SLURPgpi (7.7); • a fragment obtained by bonding a fragment from amino acid No. 886, glutamine, to amino acid No. 991, serine, to SLURPgpi (7.8); • a fragment obtained by bonding a fragment from amino acid No. 941, alanine, to amino acid No. 991, serine, to SLURPgpi (7.9); • a fragment obtained by bonding SEQ ID NO: 44 to SLURPgpi (7.61); • a fragment obtained by bonding SEQ ID NO: 45 to SLURPgpi (7.62); • a fragment obtained by bonding SEQ ID NO: 46 to SLURPgpi (7.63); • a fragment obtained by bonding SEQ ID NO: 47 to SLURPgpi (7.64); • a fragment obtained by bonding SEQ ID NO: 48 to SLURPgpi (7.623); • a fragment obtained by bonding SEQ ID NO: 49 to SLURPgpi (7.6231); • a fragment obtained by bonding SEQ ID NO: 50 to SLURPgpi (7.6232); • a fragment obtained by bonding SEQ ID NO: 51 to SLURPgpi (7.6241); and • a fragment obtained by bonding SEQ ID NO: 52 to SLURPgpi (7.6242).
(In western blotting, separated proteins are transferred to a membrane and probed.)

The subject of assay [2] is HEG1 protein (purified from ACC-MESO4 or recombinant soluble HEG1). The assay is described as follows: Western blot / dot blot reactivity of antibodies with HEG1 protein. In kind it is binding, human. The settings on record: Western blot, anti-human intelectin antibody-HRP as secondary antibody. The procedure: A massive amount of ACC-MESO4 was cultured, and purification of an antigen from the cell lysate was performed. Cells from 240 10-cm dishes were solubilized with 50 mM Tris buffer (pH 8.0) containing 1% TRITON™ X-100 (detergent), 1% CHAPS, 1 mM EDTA, 50 mM NaCl, and protease inhibitor (Complete, Roche Life Science), and then centrifuged. The resulting supernatant was dialyzed with 20 mM acetate buffer (pH 5.0) at 4° C. for 18 hours to afford an acidic precipitate. The precipitate was extracted with 20 mM Tris buffer (pH 7.2) containing 0.1% TWEEN® 20 (polyethylene glycol sorbitan monolaurate, polyoxyethylenesorbitan monolaurate) and 150 mM NaCl and centrifuged, and the resulting supernatant was concentrated by using an Amicon Ultra-15, 100 kDa (Merck Millipore) and subjected to solution exchange with 20 mM Tris buffer (pH 8.0) containing 6 M guanidine hydrochloride. To the concentrated solution, tris(2-carboxyethyl)phosphine hydrochloride with a final concentration of 10 mM was added, and the resultant was heated at 60° C. for 30 minutes, and iodoacetamide with a final concentration of 40 mM was then added thereto, and reacted at room temperature for 3 hours. The reaction solution was subjected to gel filtration chromatography (SUPEROSE® 6 INCREASE (prepacked column) 10/300 GL (GE Healthcare)) in 20 mM Tris buffer (pH 8.0) containing 6 M guanidine hydrochloride and 0.05% TWEEN® 20 (polyethylene glycol sorbitan monolaurate, polyoxyethylenesorbitan monolaurate), and fractions positive for dot blot were collected. The sample was dialyzed with 25 mM phosphate buffer (pH 7.0) containing 4 M urea and 0.05% TWEEN® 20 (polyethylene glycol sorbitan monolaurate, polyoxyethylenesorbitan monolaurate) at room temperature overnight, and applied to a Mono Q 5/50 GL (GE Healthcare). The column was washed with 25 mM phosphate buffer (pH 7.0) containing 4 M urea and 0.05% TWEEN® 20 (polyethylene glycol sorbitan monolaurate, polyoxyethylenesorbitan monolaurate), and thereafter elution was performed with an NaCl salt concentration gradient of 0 to 1 M. Fractions strongly positive for dot blot were collected, and dialyzed with 25 mM phosphate buffer (pH 7.2) containing 150 mM NaCl and 0.05% TWEEN® 20 (polyethylene glycol sorbitan monolaurate, polyoxyethylenesorbitan monolaurate) at room temperature overnight, and applied to 1 mL of WGA-SEPHAROSE® (wheat germ agglutinin-crosslinked, beaded-form of agarose) (J-OIL MILLS, Inc.). After washing with buffer, elution was performed with 25 mM phosphate buffer (pH 7.2) containing 0.2 M N-acetylglucosamine, 150 mM NaCl, and 0.05% TWEEN® 20 (polyethylene glycol sorbitan monolaurate, polyoxyethylenesorbitan monolaurate), and the eluent was concentrated with a Centricon (YM-30) (Millipore). Gel filtration chromatography (SUPEROSE® 6 INCREASE (prepacked column) 10/300 GL (GE Healthcare)) was performed in 25 mM phosphate buffer (pH 7.2) containing 3 M GdnHCI and 0.5% CHAPS, and fractions strongly positive for dot blot were dialyzed with 20 mM NH4HCO3 containing 0.5% CHAPS at room temperature overnight to afford a purified antigen.
The dot blot was performed as follows. A PVDF membrane (Immobilon-P, Merck Millipore) was soaked in methanol, and then washed and impregnated with pure water. The hydrophilized PVDF membrane was placed on a filter paper containing water to avoid air inclusion, removed of excessive moisture, and soaked with 1 to 5 μL of the sample in dots fed by a micropipette. After the membrane was dried at room temperature overnight, the membrane was hydrophilized again with methanol and pure water, and blocked with 20 mM Tris buffer (pH 7.4) containing 5% skim milk, 0.1% TWEEN® 20 (polyethylene glycol sorbitan monolaurate, polyoxyethylenesorbitan monolaurate), and 150 mM NaCl (blocking buffer) at room temperature for 1 hour. […]

B1: 7.623: SEQ ID NO: 48 (SKSPSLVSLPTEST) bonded to SLURPgpi (protein)
chain: SKSPSLVSLPTESTGSLKCYTCKEPMTSASCRTITRCKPEDTACMTTLVTVEAEYPFNQSPVVTRSCSSSCVATDPDSIGAAHLIFCCFRDLCNSELSRDGAPSLGSPGGLLLALALFLLLGVLL
As for B1, the “Binding to SKM9-2 antibody (positive/negative)” value (“Binding … (positive/negative)” for short) in assay [1] was “positive”; in assay [1] (listed as fragment 7.623), “positive signal”.

B2: 7.62: SEQ ID NO: 45 (EKVITESKSPSLVSLPTEST) bonded to SLURPgpi (protein)
chain: EKVITESKSPSLVSLPTESTGSLKCYTCKEPMTSASCRTITRCKPEDTACMTTLVTVEAEYPFNQSPVVTRSCSSSCVATDPDSIGAAHLIFCCFRDLCNSELSRDGAPSLGSPGGLLLALALFLLLGVLL
For the molecule B2, the “Binding … (positive/negative)” value is given as “positive” in assay [1] and “positive signal” in assay [1] (listed as fragment 7.62).

B3: 7.6: HEG1 exon 7 fragment from amino acid No. 783 bonded to SLURPgpi; SEQ ID NO: 66 in FIG. 13 (protein)
chain: DLKSQSTPHQEKVITESKSPSLVSLPTESTKAVTTNSPLPPSLTESSTEQTLPATSTNLAQMSPTFTTTILKTSQPLMTTPGTLSSTASLVTGPIAVQTTAGKQLSLTHPEILVPQISTEGGISTERNRVIVDATSGLIPLTSVPTSAKEMTTKLGVTAEYSPASRSLGTSPSPQTTVVSTAEDLAPKSATFAVQSSTQSPTTLSSSASGSLKCYTCKEPMTSASCRTITRCKPEDTACMTTLVTVEAEYPFNQSPVVTRSCSSSCVATDPDSIGAAHLIFCCFRDLCNSELSRDGAPSLGSPGGLLLALALFLLLGVLL
As for B3, the “Binding … (positive/negative)” value in assay [1] is reported as “positive”; in assay [1] (listed as fragment 7.6), “positive signal”.

B4: intelectin-fused antibody: VH and CH1 of SKM9-2 H chain fused to human intelectin positions 19-313, co-expressed with SKM9-2 L chains (protein)
chain: QVQLQQPGAELVRPGASVKLSCKASGFSFTTYWITWVKQRPGQGLEWIGMIHPSDSETRLSQTFKDKATLTVDKSSNTAYMQFSSPTSEDSAVYYCVRDFDVWGAGTTVTVSSAKTTPPSVYPLAPGSAAQTNSMVTLGCLVKGYFPEPVTVTWNSGSLSSGVHTFPAVLQSDLYTLSSSVTVPSSTWPSETVTCNVAHPASSTKVDKKIVPRDCGTDEANTYFKEWTCSSSPSLPRSCKEIKDECPSAFDGLYFLRTENGVIYQTFCDMTSGGGGWTLVASVHENDMRGKCTVGDRWSSQQGSKADYPEGDGNWANYNTFGSAEAATSDDYKNPGYYDIQAKDLGIWHVPNKSPMQHWRNSALLRYRTDTGFLQTLGHNLFGIYQKYPVKYGEGKCWTDNGPVIPVVYDFGDAQKTASYYSPYGQREFTAGFVQFRVFNNERAANALCAGMRVTGCNTEHHCIGGGGYFPEASPQQCGDFSGFDWSGYGTHVGYSSSREITEAAVLLFYR
light: DVLMTQTPLSLPVSLGDQASISCRSSQNIVHNNGNTYLGWYLQKPGQSPKLLIFKVSNRFSGVPDRFSGSGSGTDFTLKISRVEAEDLGVYYCFQGSHIPRTFGGGTRLEIKRADAAPTVSIFPPSSEQLTSGGASVVCFLNNFYPKDINVKWKIDGSERQNGVLNSWTDQDSKDSTYSMSSTLTLTKDEYERHNSYTCEATHKTSTSPIVKSFNRNEC
For the molecule B4, the “Recognition of glycosylated HEG1 protein” value in assay [2] is reported as “recognized the glycosylated HEG1 protein”; in assay [2] (listed as protein complex including VH regions and CH1 regions of SKM9-2 antibody fused to) it was “allows detection of HEG1 protein”.
